Results reported in paper PMC2886027.

Target: T1, DraTopIB (Deinococcus radiodurans, UniProt Q9RWH8 1-346)
T1 sequence: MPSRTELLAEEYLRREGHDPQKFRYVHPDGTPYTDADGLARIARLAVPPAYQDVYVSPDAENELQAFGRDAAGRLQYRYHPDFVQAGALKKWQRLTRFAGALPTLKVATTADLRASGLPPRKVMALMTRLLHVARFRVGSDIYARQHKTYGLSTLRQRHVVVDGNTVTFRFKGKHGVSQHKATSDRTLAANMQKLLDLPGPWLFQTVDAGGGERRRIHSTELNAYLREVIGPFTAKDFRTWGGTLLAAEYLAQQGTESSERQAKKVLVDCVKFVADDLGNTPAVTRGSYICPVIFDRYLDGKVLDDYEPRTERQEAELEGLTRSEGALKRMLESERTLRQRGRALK
Assay: crystal structure

B1: 12-bp duplex (dsDNA)
DNA 1: GAATAAGGGCGC
DNA 2: GCGCCCTTATTC
B1: binds.
